These are literature values, as cited in publication PMC3859915.

The data set addresses IL-15 (Mus musculus) (UniProt P48346).
Chain of UniProt P48346 (P48346 49-162): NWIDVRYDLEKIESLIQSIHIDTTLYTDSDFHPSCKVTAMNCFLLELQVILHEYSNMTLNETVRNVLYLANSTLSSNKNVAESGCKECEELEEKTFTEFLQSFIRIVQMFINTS

The Kd is the free concentration of one partner at which half of the binding sites on the other are occupied at equilibrium, for simple one-to-one binding. In the case of IL-15Rα (from UniProt Q60819), the Kd is 0.014 nM.
